The target of the test is AvrPtoB BAK1-interacting domain, 250-359 (UniProt Q8RSY1). In words: gel filtration co-migration, Coomassie SDS-PAGE. To be noted: reference: wild-type BAK1-KD.

Turning to “BAK1 kinase domain, 250-591 (from UniProt Q94F62) BAK1-KD T449A”, for the setting “sites T449”, the “binding against the reference” value is recorded as “lost”.

On to “BAK1 kinase domain, 250-591 (from UniProt Q94F62) BAK1-KD T450A”, for which the “binding against the reference” value (sites T450) was “lost”.
